Laboratory results taken from publication PMC10249358 (2023).
Like-named read-outs stand apart in the source and are kept apart here. No end group written: not given here. *: point of attachment. FITC = O=C1OC2(c3ccc(O)cc3Oc3cc(O)ccc32)c2ccc(NC(=S)*)cc21

Tests used:
Assay in all cases: FP
[1] = target: T1, radixin FERM domain (as used in FP) (human, UniProt P35241 5-295)
T1 chain: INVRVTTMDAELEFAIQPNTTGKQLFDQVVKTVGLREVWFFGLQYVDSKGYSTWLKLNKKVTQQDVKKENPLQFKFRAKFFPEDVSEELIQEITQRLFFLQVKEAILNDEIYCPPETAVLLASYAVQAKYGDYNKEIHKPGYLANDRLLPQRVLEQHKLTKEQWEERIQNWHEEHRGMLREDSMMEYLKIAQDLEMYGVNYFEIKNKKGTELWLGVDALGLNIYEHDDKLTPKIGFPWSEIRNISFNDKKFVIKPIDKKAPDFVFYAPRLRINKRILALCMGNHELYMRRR

moesin FERM domain [2] = target: T2, moesin FERM domain (UniProt P26038 2-295)
[3] = target: ezrin FERM domain (as used in FP) (UniProt P15311 2-296)
merlin FERM domain = target: T3, merlin FERM domain (human, UniProt P35240 22-312)
T3 chain: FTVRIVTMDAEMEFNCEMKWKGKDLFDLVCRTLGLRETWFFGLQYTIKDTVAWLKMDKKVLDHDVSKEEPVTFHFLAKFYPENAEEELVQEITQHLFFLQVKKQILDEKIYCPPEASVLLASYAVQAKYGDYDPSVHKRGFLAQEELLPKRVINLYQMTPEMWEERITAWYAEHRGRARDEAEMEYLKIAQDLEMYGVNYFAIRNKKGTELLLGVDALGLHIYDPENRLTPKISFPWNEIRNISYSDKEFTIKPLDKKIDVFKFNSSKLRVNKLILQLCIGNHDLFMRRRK

moesin FERM domain [4] = target: T2, moesin FERM domain; remark: listed apart in the source
moesin FERM domain [5] = target: T2, moesin FERM domain; remark: listed apart in the source

Sequence of ezrin FERM domain (as used in FP) (P15311 2-296): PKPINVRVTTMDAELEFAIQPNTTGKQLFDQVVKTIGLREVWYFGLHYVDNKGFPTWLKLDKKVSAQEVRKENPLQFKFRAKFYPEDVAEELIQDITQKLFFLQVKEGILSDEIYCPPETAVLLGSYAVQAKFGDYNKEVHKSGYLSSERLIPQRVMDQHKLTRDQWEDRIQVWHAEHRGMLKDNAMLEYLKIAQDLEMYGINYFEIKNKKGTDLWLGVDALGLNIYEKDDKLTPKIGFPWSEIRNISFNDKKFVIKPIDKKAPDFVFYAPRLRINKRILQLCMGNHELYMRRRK

B1: FITC-EBP50(348–358) peptide (peptide)
peptide: {FITC}-WSKKNELFSNL
[1]
  Kd: 3200 nM
Moesin FERM domain [2]
  Kd: 3000 nM
[3]
  Kd: 3200 nM
Merlin FERM domain
  Kd: 1.8 µM

B2: FITC-KIRREL3(637–652) peptide (peptide)
peptide: {FITC}-YYSVNTFKEHHSTPTI
[1]
  Kd: 1400 nM
Moesin FERM domain [2]
  Kd: 80 nM
[3]
  Kd: 1400 nM

B3: TBX4 peptide extended N-terminally with PYT (peptide)
peptide: PYTSYSVQTMETVPYQPFP
Moesin FERM domain [4]
  Kd: 3200 nM

B4: FITC-ZNF622(341–356) peptide (peptide)
peptide: {FITC}-LEFADFYDFRSSYPDH
[1]
  Kd: 2500 nM
Moesin FERM domain [2]
  Kd: 1000 nM
[3]
  Kd: 1600 nM
Merlin FERM domain
  Kd: 4.1 µM

B5: KIRREL3(634–652) peptide, unlabeled, N-terminally extended (peptide)
peptide: TNGYYSVNTFKEHHSTPTI
Moesin FERM domain [4]
  Kd: 120 nM

B6: FITC-NOP53(192–207) peptide (peptide)
peptide: FYDLWASDNPLDRPLV
modifications: also: FITC label, position not given here
[1]
  Kd: 3500 nM
Moesin FERM domain [2]
  Kd: 710 nM
[3]
  Kd: 2400 nM
Merlin FERM domain
  Kd: 17 µM

B7: FITC-LATS1(73–88) peptide (peptide)
peptide: {FITC}-THHKALQEIRNSLLPF
[1]
  Kd: 1700 nM
Moesin FERM domain [2]
  Kd: 1000 nM
[3]
  Kd: 1200 nM
Merlin FERM domain
  Kd: 8.5 µM

B8: KIRREL3(637–652) peptide, unlabeled (peptide)
peptide: YYSVNTFKEHHSTPTI
Moesin FERM domain [4]
  Kd: 90 nM

B9: FITC-TBX4(428–443) peptide (peptide)
peptide: SYSVQTMETVPYQPFP
modifications: also: FITC label, position not given here
[1]
  Kd: 4600 nM
Moesin FERM domain [2]
  Kd: 750 nM
[3]
  Kd: 4500 nM

B10: TBX4(428–443) peptide, unlabeled (peptide)
peptide: SYSVQTMETVPYQPFP
Moesin FERM domain [4]
  Kd: 1000 nM

B11: ZNF622(341–356) peptide, unlabeled (peptide)
peptide: LEFADFYDFRSSYPDH
Moesin FERM domain [5]
  Kd: 1400 nM
